Experimental findings from the supplement of paper PMC7877785 are described below.

The data set in a line: self-splicing fitness, log relative to wild type (ln ratio); higher = more splicing; Tetrahymena group I intron in knt gene, E. coli kanamycin selection, DiMSum; sequences stand for … in CUCUCU…GGAGGGAAAAGUUAUCAGGCAUGCACCUGGUAGCUAGUCUUUAAACCAAUAGAUUGCAUCGGUUUAAAAGGCAAGACCGUCAAAUUGCGGGAAAGGGGUCAACAGCCGUUCAGUACCAAGUCUCAGGGGAAACUUUGAGAUGGCCUUGCAAAGGGUAUGGUAAUAAGCUGACGGACAUGGUCCUAACCACGCAGCCAAGUCCUAAGUCAACAGAUCUUCUGUUGAUAUGGAUGCAGUUCACAGACUAAAUGUCGGUCGGGGAAGAUGUAUUCUUCUCAUAAGAUAUAGUCGGACCUCUCCUUAAUGGGAGCUAGCGGAUGAAGUGAUGCAACACUGGAGCCGCUGGGAACUAAUUUGUAUGCGAAAGUAUAUUGAUUAGUUUUGGAGUACUCGUGGUCG
The method in brief:
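DiMSum derived fitness as the error-weighted combination of fold changes across replicates, kanamycin versus no kanamycin, normalised to wild type. E. coli BL21(DE3) held the library, which randomised all eight P1ex-region intron nucleotides within the knt kanamycin-resistance gene on pET-22b(+). Six replicate transformations grew overnight at 37°C or 30°C on LB agar with or without 25 μg/mL kanamycin, also containing 100 μg/mL carbenicillin, 50 μM IPTG and 0.2% rhamnose, and pooled colonies were amplicon-sequenced on an Illumina HiSeq 2500.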

± gives the uncertainty stated by the source.

With ACAAAGCAAUAUUACGUUCU, the “self-splicing fitness (ln)” value (30 °C) is -0.539 ± 0.055 and the “self-splicing fitness (ln)” value (37 °C) was -0.567 ± 0.065.
In the same order, the values of ACACAGCAAUAUUACGAAGG are -1.75 ± 0.061 and -2.18 ± 0.11.
Taken in the same sequence, the figures for ACACAGCAAUAUUACGACUA were -1.22 ± 0.091 and -0.346 ± 0.084.
Taken in the same sequence, the figures for ACACAGCAAUAUUACGAGAC were -3.25 ± 0.14 and -2.54 ± 0.17.
Take ACACAGCAAUAUUACGAUAU: the “self-splicing fitness (ln)” value reads like this: (30 °C) -1.63 ± 0.08; (37 °C) -1.62 ± 0.098.
For the sequence ACACAGCAAUAUUACGCACA, the “self-splicing fitness (ln)” value (30 °C) is -1.16 ± 0.1 and the “self-splicing fitness (ln)” value (37 °C) is -0.111 ± 0.1.
Taken in the same sequence, the figures for ACACAGCAAUAUUACGCGUU were -4.3 ± 0.16 and -2.29 ± 0.14.
As to ACACAGCAAUAUUACGCUAG, the “self-splicing fitness (ln)” value was -1.41 ± 0.075 (30 °C) and -1.06 ± 0.092 (37 °C).
In the same order, the values of ACACAGCAAUAUUACGCUUA are -1.75 ± 0.098 and -1.7 ± 0.075.
ACACAGCAAUAUUACGGAUG: the “self-splicing fitness (ln)” value is, setting by setting: (30 °C) -1.54 ± 0.058; (37 °C) -0.668 ± 0.084.
Taken in the same sequence, the figures for ACACAGCAAUAUUACGGGCG were -0.978 ± 0.048 and -0.369 ± 0.062.
Taken in the same sequence, the figures for ACACAGCAAUAUUACGGUGU were -5.22 ± 0.26 and -2.92 ± 0.21.
In the same order, the values of ACACAGCAAUAUUACGGUUA are -1.16 ± 0.059 and -0.485 ± 0.061.
Regarding ACACAGCAAUAUUACGUAAA, the “self-splicing fitness (ln)” value runs as follows: (30 °C) -3.49 ± 0.15; (37 °C) -1.2 ± 0.12.
In the same order, the values of ACACAGCAAUAUUACGUGGC are -3.54 ± 0.23 and -0.291 ± 0.13.
In the same order, the values of ACACAGCAAUAUUACGUUAU are -3.35 ± 0.11 and -2.65 ± 0.12.
In the same order, the values of ACACAGCAAUAUUACGUUCA are -1.96 ± 0.066 and -0.442 ± 0.064.
As to ACACAGCAAUAUUACGUUUC, the “self-splicing fitness (ln)” value reads like this: (30 °C) -3.61 ± 0.12; (37 °C) -2.28 ± 0.14.
Turning to ACACAGCAAUAUUACGUUUU, the “self-splicing fitness (ln)” value by setting is: (30 °C) -3.42 ± 0.11; (37 °C) -2.57 ± 0.14.
In the case of ACAGAGCAAUAUUACGAACA, the “self-splicing fitness (ln)” value (30 °C) is -2.01 ± 0.26 and the “self-splicing fitness (ln)” value (37 °C) is -2.67 ± 0.41.
For the sequence ACAGAGCAAUAUUACGACAA, the “self-splicing fitness (ln)” value (37 °C) is -2.31 ± 0.21.
As for ACAGAGCAAUAUUACGACCU, the “self-splicing fitness (ln)” value reads like this: (30 °C) -2.8 ± 0.19; (37 °C) -0.728 ± 0.16.
As to ACAGAGCAAUAUUACGACGA, the “self-splicing fitness (ln)” value (30 °C) was -0.906 ± 0.43 and the “self-splicing fitness (ln)” value (37 °C) is -1.83 ± 0.38.
Taken in the same sequence, the figures for ACAGAGCAAUAUUACGAGGC were -3.42 ± 0.38 and -2.15 ± 0.25.
In the same order, the values of ACAGAGCAAUAUUACGAGUC are -4.65 ± 0.38 and -1.82 ± 0.27.
Taken in the same sequence, the figures for ACAGAGCAAUAUUACGAGUG were -4.35 ± 0.37 and -3.43 ± 0.29.
With ACAGAGCAAUAUUACGAUCC, the “self-splicing fitness (ln)” value (30 °C) was -3.76 ± 0.39 and the “self-splicing fitness (ln)” value (37 °C) is -1.5 ± 0.34.
In the same order, the values of ACAGAGCAAUAUUACGAUCG are -2.71 ± 0.18 and -1.88 ± 0.23.
Taken in the same sequence, the figures for ACAGAGCAAUAUUACGCAGG were -4.02 ± 0.18 and -2.59 ± 0.17.
In the same order, the values of ACAGAGCAAUAUUACGCCUA are -1.68 ± 0.23 and -1.93 ± 0.22.
Take ACAGAGCAAUAUUACGCGUA: the “self-splicing fitness (ln)” value is, setting by setting: (30 °C) -3.21 ± 0.2; (37 °C) -2.91 ± 0.23.
Turning to ACAGAGCAAUAUUACGCUAG, the “self-splicing fitness (ln)” value was -3.28 ± 0.19 (30 °C) and -2.61 ± 0.18 (37 °C).
In the same order, the values of ACAGAGCAAUAUUACGCUUA are -2.01 ± 0.22 and -1.25 ± 0.16.
Regarding ACAGAGCAAUAUUACGGUCA, the “self-splicing fitness (ln)” value (30 °C) was -2.73 ± 0.22 and the “self-splicing fitness (ln)” value (37 °C) is -0.944 ± 0.17.
As to ACAGAGCAAUAUUACGGUGC, the “self-splicing fitness (ln)” value (30 °C) is -3.86 ± 0.44 and the “self-splicing fitness (ln)” value (37 °C) is -2.09 ± 0.31.
Taken in the same sequence, the figures for ACAGAGCAAUAUUACGUCGG were -3.64 ± 0.16 and -3.58 ± 0.23.
In the same order, the values of ACAGAGCAAUAUUACGUCUU are -1.48 ± 0.18 and -1.98 ± 0.18.
In the same order, the values of ACAGAGCAAUAUUACGUGGA are -3.67 ± 0.31 and -2.88 ± 0.31.
